Values quoted from earlier work in article PMC3218206 (Chemical biology & drug design, 2011).

Experiments:
[1] = target: Nrf2 14mer peptide (Homo sapiens); experiment: ITC

Kd [1] [nM]	Substance	displacement of Nrf2 from Keap1-Nrf2 complex (Keap1-Nrf2 complex)
20	Keap1 (from UniProt Q14145)	
	LQLDEETGEFLPIQ	effectively
